# Target: Twin-Strep-tagged LY6A, C57BL/6J variant (GPI-anchor truncated, soluble) (mouse (C57BL/6J)) (UniProt P05533)
# Test: ELISA, AAV particles on plate-bound Twin-Strep-tagged LY6A; apparent Kd from a 1:1 fit
# Chain of Twin-Strep-tagged LY6A, C57BL/6J variant (GPI-anchor truncated, soluble) (mouse (C57BL/6J)) (P05533 27-111, change not shown): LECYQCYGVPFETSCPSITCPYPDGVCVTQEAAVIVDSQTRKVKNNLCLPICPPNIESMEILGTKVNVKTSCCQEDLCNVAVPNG
substance,measurement,value
AAV-PHP.B capsid (AAV9 variant with the TLAVPFK insert),Kd,0.07 nM

# Source: patent US20210393713A1
